# Experimental data published in patent publication US9603953B2, “Dendrimer compositions, methods of synthesis, and uses thereof” (priority 2014, dated 2017).
# Entries after “also recorded” stand apart in the source; their conditions may differ.
# Key:
# humans = settings: 1.3 GBq (35 mCi) dose; cited from earlier work
# Wistar rats = test: Acute toxicity test after intravenous and intraperitoneal administration in the rat (Example 5); type: in vivo; settings: male Wistar rats, intravenous injection
# Method: Species: Wistar rats RjHan: Wi (free of specific pathogens)
# Number and sex and Weight: 6 healthy adult rats (males), average weight 300 g
# 3 groups of male rats: • Group 1 (“G5”): 2 rats (1 and 2) receiving 0.1 ml of labeled solution of dendrimer alone, one via intravenous administration, the other intraperitoneally 1 • Group 2 (“G5-HLS”): 2 rats (3 and 4) receiving 0.1 ml of the solution of the test item “G5 dendrimer {1-nitro-1H-imidazole-methyl -1,2,3-triazol-methyl-di(2-pycolyl)amine}”, one via intravenous administration, the other intraperitoneally • Group 3 (“HLS”): 2 rats (n ° 4 and 5) receiving 0.1 ml of the labeled 1-nitro-1H-imidazole-methyl -1,2,3-triazole-methyl-di-(2-pycolyl) amine, one via intravenous administration, the other intraperitoneally
# [1] = Biodistribution after intravenous (intravascular) administration in the rat (Example 5); type: in vivo
# Excerpt: (§1) The removed organs (brain, kidney, liver, heart, intestine, lung, gonads, blood, urine) were weighed and their activities were counted on NaI gamma camera.
# [2] = Biodistribution after in situ direct intrahepatic injection in the rat (Example 6); type: in vivo
# Method: They were autopsied and major organs were observed macroscopically.
# as §1
# The assessment of radioactivity was carried out on the various organs and the carcass alone, urine and whole blood.
# FIG. 6 is a scintigraphic image of biodistribution after injection: it will be noted that only the liver, stomach and intestines are discernible.
Substance,systemic toxicity in humans (humans),precipitation or thrombus formation at the injection site (Wistar rats),liver binding after intravascular administration [1],"retention at the site of introduction ([2]; male rat, laparotomy and direct injection into a liver segment, listed as dendrimer conjugate)","hepatic binding rate ([2]; rat, direct intrahepatic injection, sacrifice at 60 min, 99mTc-labelled)","biodistribution outside the targeted site ([2]; rat, in situ administration at a hepatic lobe, scintigraphy (FIG. 6))","initial injected dose by hepatic mass charged with the test item ([2]; rat, in situ intrahepatic injection, liver)"
rhenium-188 hydroxyethylidene diphosphonate,no significant toxicity,,,,,,
"Dendrimer G5 {1-nitro-1H-Imidazole-methyl-1,2,3-triazol-methyl-di-(2-pycolyl)amine}",,no precipitation was observed or thrombus formation,1.53 % DIg,remains almost stable at the site of introduction; also recorded: has not moved a lot from the site of its deposition,53.7%,negligible,33.5 % DIg
